Starred links: 1 amine or outer side, 2 acyl side, 3 side chain; linkers in the order of their positions; H or OH if unused. Non-standard residues stand in square brackets, D forms with d. Groups on a side chain read outwards from the residue. No end group written: not given here. *: point of attachment. C18 diacid = O=C(O)CCCCCCCCCCCCCCCCC(=O)*; γGlu = O=C(O)[C@H](CCC(=O)[*:2])N[*:1]; AEEA = NCCOCCOCC(=O)O; Aib = CC(C)(N)C(=O)O
B1: SEQ ID NO: 135 (peptide)
peptide: IVLSLD[dV]PIKLK([AEEA-AEEA-γGlu-C18 diacid])QILLKQERQK[Aib]QRQQAEKNKQILAQV-NH2
modifications: N-terminus assumed
SMILES: CC[C@H](C)[C@H](N)C(=O)N[C@H](C(=O)N[C@@H](CC(C)C)C(=O)N[C@@H](CO)C(=O)N[C@@H](CC(C)C)C(=O)N[C@@H](CC(=O)O)C(=O)N[C@@H](C(=O)N1CCC[C@H]1C(=O)N[C@H](C(=O)N[C@@H](CCCCN)C(=O)N[C@@H](CC(C)C)C(=O)N[C@@H](CCCCNC(=O)COCCOCCNC(=O)COCCOCCNC(=O)CC[C@H](NC(=O)CCCCCCCCCCCCCCCCC(=O)O)C(=O)O)C(=O)N[C@@H](CCC(N)=O)C(=O)N[C@H](C(=O)N[C@@H](CC(C)C)C(=O)N[C@@H](CC(C)C)C(=O)N[C@@H](CCCCN)C(=O)N[C@@H](CCC(N)=O)C(=O)N[C@@H](CCC(=O)O)C(=O)N[C@@H](CCCNC(=N)N)C(=O)N[C@@H](CCC(N)=O)C(=O)N[C@@H](CCCCN)C(=O)NC(C)(C)C(=O)N[C@@H](CCC(N)=O)C(=O)N[C@@H](CCCNC(=N)N)C(=O)N[C@@H](CCC(N)=O)C(=O)N[C@@H](CCC(N)=O)C(=O)N[C@@H](C)C(=O)N[C@@H](CCC(=O)O)C(=O)N[C@@H](CCCCN)C(=O)N[C@@H](CC(N)=O)C(=O)N[C@@H](CCCCN)C(=O)N[C@@H](CCC(N)=O)C(=O)N[C@H](C(=O)N[C@@H](CC(C)C)C(=O)N[C@@H](C)C(=O)N[C@@H](CCC(N)=O)C(=O)N[C@H](C(N)=O)C(C)C)[C@@H](C)CC)[C@@H](C)CC)[C@@H](C)CC)C(C)C)C(C)C
B2: SEQ ID NO: 136 (peptide)
peptide: IVLSLD[dV]PIKLK([AEEA-AEEA-γGlu-C18 diacid])QILLKQERQKK[Aib]RQKAEKNKQILAQV-NH2
modifications: N-terminus assumed
SMILES: CC[C@H](C)[C@H](N)C(=O)N[C@H](C(=O)N[C@@H](CC(C)C)C(=O)N[C@@H](CO)C(=O)N[C@@H](CC(C)C)C(=O)N[C@@H](CC(=O)O)C(=O)N[C@@H](C(=O)N1CCC[C@H]1C(=O)N[C@H](C(=O)N[C@@H](CCCCN)C(=O)N[C@@H](CC(C)C)C(=O)N[C@@H](CCCCNC(=O)COCCOCCNC(=O)COCCOCCNC(=O)CC[C@H](NC(=O)CCCCCCCCCCCCCCCCC(=O)O)C(=O)O)C(=O)N[C@@H](CCC(N)=O)C(=O)N[C@H](C(=O)N[C@@H](CC(C)C)C(=O)N[C@@H](CC(C)C)C(=O)N[C@@H](CCCCN)C(=O)N[C@@H](CCC(N)=O)C(=O)N[C@@H](CCC(=O)O)C(=O)N[C@@H](CCCNC(=N)N)C(=O)N[C@@H](CCC(N)=O)C(=O)N[C@@H](CCCCN)C(=O)N[C@@H](CCCCN)C(=O)NC(C)(C)C(=O)N[C@@H](CCCNC(=N)N)C(=O)N[C@@H](CCC(N)=O)C(=O)N[C@@H](CCCCN)C(=O)N[C@@H](C)C(=O)N[C@@H](CCC(=O)O)C(=O)N[C@@H](CCCCN)C(=O)N[C@@H](CC(N)=O)C(=O)N[C@@H](CCCCN)C(=O)N[C@@H](CCC(N)=O)C(=O)N[C@H](C(=O)N[C@@H](CC(C)C)C(=O)N[C@@H](C)C(=O)N[C@@H](CCC(N)=O)C(=O)N[C@H](C(N)=O)C(C)C)[C@@H](C)CC)[C@@H](C)CC)[C@@H](C)CC)C(C)C)C(C)C

Target: human corticotropin-releasing factor 2α (CRF2 α receptor) (human), Q13324
Assay: cell-based or functional assay

Chain of human corticotropin-releasing factor 2α (CRF2 α receptor) (human), Q13324 (Q13324 20-411): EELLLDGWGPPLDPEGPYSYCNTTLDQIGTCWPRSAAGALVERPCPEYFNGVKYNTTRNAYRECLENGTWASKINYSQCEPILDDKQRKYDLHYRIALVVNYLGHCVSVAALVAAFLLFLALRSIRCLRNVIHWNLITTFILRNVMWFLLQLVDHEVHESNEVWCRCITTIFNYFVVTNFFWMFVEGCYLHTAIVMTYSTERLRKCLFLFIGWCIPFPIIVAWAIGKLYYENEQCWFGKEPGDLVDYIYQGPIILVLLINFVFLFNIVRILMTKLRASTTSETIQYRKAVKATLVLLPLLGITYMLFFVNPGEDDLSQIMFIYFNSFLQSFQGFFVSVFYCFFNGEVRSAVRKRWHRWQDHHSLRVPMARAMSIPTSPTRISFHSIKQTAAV

Binder | EC50 [nM], 0% HSA [nM] | EC50 [nM], 0.1% HSA [nM]
B1 | 0.04 | 1.48
B2 | 0.05 | 2.41

— patent US12679878B2, “CRF2 receptor agonists and their use in therapy” (SANOFI, priority 2020, dated 2026)
